The text below walks through data of patent US20200299408A1 (Genentech, published 2020).

For one test, the target named is T1, cyCD3εγ (cynomolgus monkey).
T1 chain 1: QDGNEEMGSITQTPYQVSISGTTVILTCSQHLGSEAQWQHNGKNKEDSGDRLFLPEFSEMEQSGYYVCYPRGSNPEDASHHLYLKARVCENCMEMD
T1 chain 2: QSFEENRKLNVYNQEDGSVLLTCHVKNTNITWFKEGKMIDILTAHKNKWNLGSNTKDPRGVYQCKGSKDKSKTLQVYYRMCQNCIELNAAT
Kind of test: monovalent binding affinity, method not stated on the sheet.

Test [1] has as its target T2, single chain human CD3ε-26mer-CD3γ (CD3εγ) (human).
T2 construct: also called human CD3εγ
T2 chain: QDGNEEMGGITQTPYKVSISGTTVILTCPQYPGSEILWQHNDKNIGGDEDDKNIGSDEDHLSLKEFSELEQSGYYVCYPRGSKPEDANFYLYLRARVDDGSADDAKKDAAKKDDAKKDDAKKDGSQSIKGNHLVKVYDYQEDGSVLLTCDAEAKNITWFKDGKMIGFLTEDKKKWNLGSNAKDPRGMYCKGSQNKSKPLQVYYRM
Briefly: Biacore, monovalent KD of the CD3 arm; CD3 antigen not named on the sheet (reactivity hu, cyno).

Test [2] concerns the target T3, human CD3 on T cells (human, UniProt P07766 22-207).
T3 construct: whole, on cells; On cells CD3ε stands in the CD3/TCR complex; also called CD3 antigen; CD3ε
Kind of test: FACS on Jurkat cells (CD3), anti-huIgG-PE; number printed beside the curve without a quantity name, taken as EC50. Here is the method: (§1) Binding affinities for the each of the CD3/CD20 TDBs were tested by Biacore or FACS analysis, as described above for the anti-CD3 antibodies. Briefly, for Biacore binding assays, human CD3εγ was immobilized on Biacore Series S CM5 sensor chip using the amine coupling kit from Biacore and CD3/CD20 TDBs or Fab variants thereof were in the flow through. For FACS binding assays, either Bjab cells (for B cell antigens) or Jurkat cells (for CD3 antigen) were incubated with various concentrations of TDB antibodies at 4° C. for 30 minutes, then cells were washed and incubated with 2nd antibody (anti-huIgG-PE; BD Bioscience) for another 15 minutes, before cells were washed again and ready for FACS analysis.

For test [3], the target named is T3, human CD3 on T cells. The description is as above. Here is the method:
as §1
The source holds these as a separate data set.

The target in test [4] is T4, commercial CD3ε (Creative Biomart, Catalog Number CD3E-2194H) (human, UniProt P07766).
T4 construct: commercial recombinant protein; also called commercial CD3E
Briefly: binding affinity on commercial CD3ε (Creative Biomart CD3E-2194H); method not stated in the legend.

The target in test [5] is T3, human CD3 on T cells. Kind of test: FACS on Jurkat cells (CD3); EC50 table for the curves of FIGS. 21A-21B; source CHO (N297G). The procedure:
as §1

Test [6] deals with T2, single chain human CD3ε-26mer-CD3γ …. Briefly: Biacore, human CD3εγ on chip, TDB in flow through. The procedure: as §1
For the next test, the target named is T5, Commercial hCD3eg.
T5 chain 1: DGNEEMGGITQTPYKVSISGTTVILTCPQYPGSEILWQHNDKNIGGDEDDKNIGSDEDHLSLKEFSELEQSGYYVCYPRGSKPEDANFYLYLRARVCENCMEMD
T5 chain 2: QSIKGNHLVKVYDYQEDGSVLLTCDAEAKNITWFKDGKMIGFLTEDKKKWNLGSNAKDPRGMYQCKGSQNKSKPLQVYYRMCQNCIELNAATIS
Briefly: mu IgG against commercial hCD3eg; method not stated on the sheet.

The target of test [7] is T3, human CD3 on T cells. Briefly: Scatchard; table headed 'Bivalent Binding Affinity', though its footnote reads 'monovalent binding Kd measured by scatchard'; cells not named.

Where “and” joins values, the source holds several entries; their conditions need not be identical. Equal entries are not always repeated.

B1: SP34v52 Fab (Fab, V domains shown)
VH: EVQLVESGGGLVQPGGSLRLSCAASGFTFNTYAMNWVRQAPGKGLEWVARIRSKYNNYATYYADSVKDRFTISRDDSKNTLYLQMNSLRAEDTAVYYCVRHGNFGNSYVSWFAYWGQGTLVTVSS
VL: EAVVTQEPSLTVSPGGTVTLTCRSSTGAVTTSNYANWVQQKPGQAPRGLIGGTNKRAPWTPARFSGSLLGGKAALTLSGAQPEDEAEYYCALWYSNLWVFGGGTKLTVL
Take B1: the Kd with cyCD3εγ was found to be 12 nM.

B2: murine SP34 (antibody, V domains shown)
VH: EVQLVESGGGLVQPKGSLKLSCAASGFTFNTYAMNWVRQAPGKGLEWVARIRSKYNNYATYYADSVKDRFTISRDDSQSILYLQMNNLKTEDTAMYYCVRHGNFGNSYVSWFAYWGQGTLVTVSS
VL: QAVVTQESALTTSPGETVTLTCRSSTGAVTTSNYANWVQEKPDHLFTGLIGGTNKRAPGVPARFSGSLIGDKAALTITGAQTEDEAIYFCALWYSNLWVFGGGTKLTVL
notes: KD is printed as monovalent
As to B2, in [1], the Kd turned out to be 1.9 nM.

B3: KH CD20 2H7v16/SP34v52 (bispecific antibody, V domains shown)
VH 1: EVQLVESGGGLVQPGGSLRLSCAASGYTFTSYNMHWVRQAPGKGLEWVGAIYPGNGDTSYNQKFKGRFTISVDKSKNTLYLQMNSLRAEDTAVYYCARVVYYSNSYWYFDVWGQGTLVTVSS
VL 1: DIQMTQSPSSLSASVGDRVTITCRASSSVSYMHWYQQKPGKAPKPLIYAPSNLASGVPSRFSGSGSGTDFTLTISSLQPEDFATYYCQQWSFNPPTFGQGTKVEIK
VH 2: EVQLVESGGGLVQPGGSLRLSCAASGFTFNTYAMNWVRQAPGKGLEWVARIRSKYNNYATYYADSVKDRFTISRDDSKNTLYLQMNSLRAEDTAVYYCVRHGNFGNSYVSWFAYWGQGTLVTVSS
VL 2: EAVVTQEPSLTVSPGGTVTLTCRSSTGAVTTSNYANWVQQKPGQAPRGLIGGTNKRAPWTPARFSGSLLGGKAALTLSGAQPEDEAEYYCALWYSNLWVFGGGTKLTVL
modifications: Knob-into-hole full-length IgG; constant regions are not in the letters.
notes: full-length knob-into-hole human IgG1 TDB; also called CD3/CD20 TDB 2H7v16/SP34v52
In the case of B3, the EC50 in the test with human CD3 on T cells [2] is 1.11 µg/mL; with human CD3 on T cells [3] it was 0.6 µg/mL and 4 nM.

B4: humanized 40G5c variant: VH1 graft + V67A + I69L + R71A / K4 graft (antibody, V domains shown)
VH: EVQLVQSGAEVKKPGASVKVSCKASGYTFTNYYIHWVRQAPGQGLEWIGWIYPGDGNTKYNEKFKGRATLTADTSTSTAYLELSSLRSEDTAVYYCARDSYSNYYFDYWGQGTLVTVSS
VL: DIVMTQSPDSLAVSLGERATINCKSSQSLLNSRTRKNYLAWYQQKPGQPPKLLIYWASTRESGVPDRFSGSGSGTDFTLTISSLQAEDVAVYYCTQSFILRTFGQGTKVEIK
The molecule B4 showed a Kd in test [4] of 24 nM.

B5: KH CD20 2H7v16/38E4v1 (bispecific antibody)
anti-CD20 arm heavy chain: EVQLVESGGGLVQPGGSLRLSCAASGYTFTSYNMHWVRQAPGKGLEWVGAIYPGNGDTSYNQKFKGRFTISVDKSKNTLYLQMNSLRAEDTAVYYCARVVYYSNSYWYFDVWGQGTLVTVSS
anti-CD20 arm light chain: DIQMTQSPSSLSASVGDRVTITCRASSSVSYMHWYQQKPGKAPKPLIYAPSNLASGVPSRFSGSGSGTDFTLTISSLQPEDFATYYCQQWSFNPPTFGQGTKVEIK
anti-CD3 arm heavy chain: EVQLVQSGAEVKKPGASVKVSCKASGFTFTSYYIHWVRQAPGQGLEWIGWIYPENDNTKYNEKFKDRVTITADTSTSTAYLELSSLRSEDTAVYYCARDGYSRYYFDYWGQGTLVTVSS
anti-CD3 arm light chain: DIVMTQSPDSLAVSLGERATINCKSSQSLLNSRTRKNYLAWYQQKPGQSPKLLIYWTSTRKSGVPDRFSGSGSGTDFTLTISSLQAEDVAVYYCKQSFILRTFGQGTKVEIK
notes: also called 38E4v1 CHO
Regarding B5, in the test with human CD3 on T cells [5], the EC50 was 0.24 µg/mL and ~1.6 nM. For the same molecule, in test [6], the Kd was 1.28 nM and 1.3 nM; the koff was found to be 0.00515 s⁻¹; the kon was determined as 4.03e+06 M⁻¹ s⁻¹. For the same molecule, in the test with human CD3 on T cells [3], the EC50 is 0.243 µg/mL and 1.6 nM.

B6: KH CD20 2H7v16/hu38E4c (bispecific antibody)
anti-CD20 arm heavy chain: EVQLVESGGGLVQPGGSLRLSCAASGYTFTSYNMHWVRQAPGKGLEWVGAIYPGNGDTSYNQKFKGRFTISVDKSKNTLYLQMNSLRAEDTAVYYCARVVYYSNSYWYFDVWGQGTLVTVSS
anti-CD20 arm light chain: DIQMTQSPSSLSASVGDRVTITCRASSSVSYMHWYQQKPGKAPKPLIYAPSNLASGVPSRFSGSGSGTDFTLTISSLQPEDFATYYCQQWSFNPPTFGQGTKVEIK
anti-CD3 arm heavy chain: EVQLVQSGAEVKKPGASVKVSCKASGFTFTSYYIHWVRQAPGQGLEWIGWIYPENDNTKYNEKFKDRVTITADTSTSTAYLELSSLRSEDTAVYYCARDSYSNYYFDYWGQGTLVTVSS
anti-CD3 arm light chain: DIVMTQSPDSLAVSLGERATINCKSSQSLLNSRTRKNYLAWYQQKPGQSPKLLIYWTSTRKSGVPDRFSGSGSGTDFTLTISSLQAEDVAVYYCTQSFILRTFGQGTKVEIK
notes: also called CD3/CD20 TDB 2H7v16/38E4c
On to B6, for which a half-maximal effect in the test with human CD3 on T cells [2] (EC50) was put at 1.01 µg/mL.

B7: humanized 40G5c variant: VH1 graft + I69L + R71A / K4 graft (antibody, V domains shown)
VH: EVQLVQSGAEVKKPGASVKVSCKASGYTFTNYYIHWVRQAPGQGLEWIGWIYPGDGNTKYNEKFKGRVTLTADTSTSTAYLELSSLRSEDTAVYYCARDSYSNYYFDYWGQGTLVTVSS
VL: DIVMTQSPDSLAVSLGERATINCKSSQSLLNSRTRKNYLAWYQQKPGQPPKLLIYWASTRESGVPDRFSGSGSGTDFTLTISSLQAEDVAVYYCTQSFILRTFGQGTKVEIK
B7 displayed a Kd in [4] of 36 nM.

B8: humanized 40G5c variant: VH1 graft + V67A + R71A / K4 graft (antibody, V domains shown)
VH: EVQLVQSGAEVKKPGASVKVSCKASGYTFTNYYIHWVRQAPGQGLEWIGWIYPGDGNTKYNEKFKGRATITADTSTSTAYLELSSLRSEDTAVYYCARDSYSNYYFDYWGQGTLVTVSS
VL: DIVMTQSPDSLAVSLGERATINCKSSQSLLNSRTRKNYLAWYQQKPGQPPKLLIYWASTRESGVPDRFSGSGSGTDFTLTISSLQAEDVAVYYCTQSFILRTFGQGTKVEIK
As to B8, the Kd in test [4] was 37 nM.

B9: 19B1 (antibody, IgG2b, V domains shown)
VH: EVQLQQSGPELVKPGASVRISCKASGYTFTSYYIHWMKQRPGQGLEWIGWIYPGNVNTKYNEKFKGKATLTADNSSSTANMQLSSLTSEDSAVYFCARNHDYYFDYWGQGTTLTVSS
VL: GIVMTQSPSSLAVSAGEKVTMSCKSSQSLLNSRTRKNYLAWYQQKPGQSPKLLIYWASTRESGVPDRFTGSGSGTDFTLTISSVQAEDLAVYYCKQSYILRTFGGGTKLEIK
notes: mouse hybridoma clone; also called 19B1 (xCD3)
B9 came in with a Kd in the test with Commercial hCD3eg of 0.7 nM.

B10: 72H6 (antibody, IgG2a, V domains shown)
VH: EVQLQQSGPELVKPGASVKISCKASGYSFTSYYIHWVKQRPGQGLEWIGWIFPGSDNTKYNEKFKGKATLTADTSSSTAYMQLSSLTSEDSAVYFCARNGNYAMDYWGQGTSVTVSS
VL: EIVLSQSPSSLAVSAGEKVTMSCKSSQSLLNSRTRKNYLAWYQQKPGQSPKLLIYWASTRESGVPDRFTGSGSGTDFTLTISSVQAEDLAVYYCKQSYTLRTFGGGTKLEIK
notes: mouse hybridoma clone; also called 72H6 (xCD3)
As to B10, the Kd with Commercial hCD3eg is 2.5 nM.

B11: murine 38E4 (antibody, V domains shown)
VH: QVQLQQSGPELVKPGASVTISCTASGFTFTSYYIHWVRQRPGQGLEWIGWIYPENDNTKYNEKFKDKATLTADTSSSTAYMQLSSLTSEDSAVYYCARDGYSRYYFDYWGQGTTLTVSS
VL: DIVMTQSPSFLAVSAGEKVTMSCKSSQSLLNSRTRKNYLAWYQQRPGQSPKLLIYWTSTRKSGVPDRFTGSGSGTDFTLTISSVQAEDLAIYYCKQSFILRTFGGGTKLEIK
notes: KD is printed as monovalent
For B11, in [1], the Kd amounted to 0.75 nM.

B12: K&H 2H7v16/hu UCHT1v1 (bispecific antibody, V domains shown)
VH 1: EVQLVESGGGLVQPGGSLRLSCAASGYTFTSYNMHWVRQAPGKGLEWVGAIYPGNGDTSYNQKFKGRFTISVDKSKNTLYLQMNSLRAEDTAVYYCARVVYYSNSYWYFDVWGQGTLVTVSS
VL 1: DIQMTQSPSSLSASVGDRVTITCRASSSVSYMHWYQQKPGKAPKPLIYAPSNLASGVPSRFSGSGSGTDFTLTISSLQPEDFATYYCQQWSFNPPTFGQGTKVEIK
VH 2: EVQLVESGGGLVQPGGSLRLSCAASGYSFTGYTMNWVRQAPGKGLEWVALINPYKGVTTYADSVKGRFTISVDKSKNTAYLQMNSLRAEDTAVYYCARSGYYGDSDWYFDVWGQGTLVTVSS
VL 2: DIQMTQSPSSLSASVGDRVTITCRASQDIRNYLNWYQQKPGKAPKLLIYYTSRLESGVPSRFSGSGSGTDYTLTISSLQPEDFATYYCQQGNTLPWTFGQGTKVEIK
modifications: Knob-into-hole full-length IgG; constant regions are not in the letters.
notes: also called CD3/CD20 TDB 2H7v16/UCHT1v1
B12 had a Kd with human CD3 on T cells [7] of 300 nM.
